Measured values reported in publication PMC5085234, “Monomeric gremlin is a novel vascular endothelial growth factor receptor-2 antagonist” (Oncotarget, 2016).
Where a chain is given by its changes, count along the chain named. Names and notes keep the numbering of the source.

T1: his-tagged gremlin^C141A mutant, rat (rat, UniProt O35793 25-184, C141A)
T1 construct: secreted into the medium; monomer; also called gremlin^C141A monomer; monomeric gremlin^C141A; not shown: His tag, C-terminal, kept
T1 sequence (looked up): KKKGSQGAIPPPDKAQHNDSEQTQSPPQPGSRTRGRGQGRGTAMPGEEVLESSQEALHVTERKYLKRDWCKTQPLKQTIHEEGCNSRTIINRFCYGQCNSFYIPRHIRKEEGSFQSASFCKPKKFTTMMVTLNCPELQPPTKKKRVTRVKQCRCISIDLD

B1: his-tagged gremlin^C141A mutant, rat (natural protein)
chain: T1 sequence (looked up)
B2: endogenous murine gremlin (natural protein, UniProt O70326 25-184, looked up)
chain: T1 sequence (looked up) with A117C
notes: gremlin, mouse, endogenous; immunoprecipitated with anti-gremlin antibody; Seen as 20-24 kDa monomers and 40-44 kDa dimers under non-reducing conditions; source: endogenous, lysates of healthy C57BL/6 murine organs; endogenous, conditioned medium of FGF2-T-MAE cells
B3: his-tagged wild-type gremlin (gremlin^WT), rat (natural protein, UniProt O35793 25-184, looked up)
chain: T1 sequence (looked up) with A117C
notes: secreted into the medium; covalent homodimer through Cys141; The IMAC-purified preparation holds monomer and dimer (used for non-reducing SDS-PAGE and SEC); the heparin 1.2 M NaCl fraction holds only the disulfide-linked dimer (98.5% purity) and is the form used in ELISA, SPR and cell assays; N-glycosylated and non-glycosylated forms are present; also called gremlin^WT dimer; dimeric gremlin^WT; …
B4: human BMP4 (ligand, UniProt P12644 293-408, looked up)
chain: SPKHHSQRARKKNKNCRRHSLYVDFSDVGWNDWIVAPPGYQAFYCHGDCPFPLADHLNSTNHAIVQTLVNSVNSSIPKACCVPTELSAISMLYLDEYDKVVLKNYQEMVVEGCGCR
notes: bone morphogenetic protein 4, human; the ELISA paragraph says only human BMP4; also called immobilized BMP4; source: bought: R&D

Key:
[1] = molecular target: extracellular domain D1-7 of human VEGFR2 (ECD-VEGFR2) (human); assay: SPR; BIAcore X; ECD-VEGFR2 immobilized on CM5 sensorchip (0.036-0.064 pmol/mm^2); gremlin 100 ng/mL to 4 ug/mL injected in HBS-EP; equilibrium responses fitted to the Langmuir equation for monovalent binding
[2] = molecular target: the molecule itself; assay: non-reducing SDS-PAGE with Western blot; conditioned medium of FGF2-T-MAE cells (treated with increasing H2O2 for 1 hour, then 4 hours fresh medium) immunoprecipitated with anti-gremlin antibody, WB under non-reducing conditions
[3] = molecular target: the molecule itself; assay: non-reducing SDS-PAGE with Western blot; recombinant his-tagged gremlin purified by IMAC (and heparin-affinity chromatography), SDS-PAGE without beta-mercaptoethanol, anti-gremlin WB, silver staining
[4] = molecular target: T1, his-tagged gremlin^C141A mutant, rat; assay: ELISA; 96-well plates coated with 250 ng/mL of human BMP4, increasing concentrations of gremlin, bound gremlin detected with anti-gremlin antibody; settings: both partners purified
[5] = molecular target: B3; assay: as above; settings: both partners purified

In the case of B1, the Kd [1] is reported as 73 nM.

With B2 the “stoichiometry N” value [2] was 2.

For B3, the “stoichiometry N” value [3] was 2 and the Kd [1] was 73 nM.

B4: binds [4]; binds [5].
